Measured values from article PMC5450713 (Toxins, 2017).

B1: recombinant His-tagged Vip3Ag4 protein (natural protein, Bacillus thuringiensis, UniProt I6LPV9 1-787, looked up)
chain: MNKNNTKLNARALPSFIDYFNGIYGFATGIKDIMNMIFKTDTGGNLTLDEILKNQQLLNEISGKLDGVNGSLNDLIAQGNLNTELSKEILKIANEQNQVLNDVNNKLNAINTMLHIYLPKITSMLNDVMKQNYALSLQIEYLSKQLQEISDKLDVINVNVLINSTLTEITPAYQRMKYVNEKFEDLTFATETTLKVKKNSSPADILDELTELTELAKSVTKNDVDGFEFYLNTFHDVMVGNNLFGRSALKTASELIAKENVKTSGSEVGNVYNFLIVLTALQAKAFLTLTTCRKLLGLADIDYTFIMNEHLDKEKEEFRVNILPTLSNTFSNPNYAKAKGSNEDAKIIVEAKPGYALVGFEMSNDSITVLKAYQAKLKQDYQVDKDSLSEIVYGDMDKLLCPDQSEQIYYTNNIAFPNEYVITKITFTKKMNSLRYEATANFYDSSTGDIDLNKTKVESSEAEYSTLSASTDGVYMPLGIISETFLTPINGFGIVVDENSKLVNLTCKSYLREVLLATDLSNKETKLIVPPIGFISNIVENGNLEGENLEPWKANNKNAYVDHTGGVNGTKALYVHKDGEFSQFIGDKLKSKTEYVIQYIVKGKASILLKDEKNGDCIYEDTNNGLEDFQTITKSFITGTDSSGVHLIFNSQNGDEAFGENFTISEIRLSEDLLSPELINSDAWVGSQGTWISGNSLTINSNVNGTFRQNLSLESYSTYSMNFNVNGFAKVTVRNSREVLFEKNYPQLSPKDISEKFTTAANNTGLYVELSRFTSGGAINFRNFSIK
notes: Expected size with His-tag 91.38 kDa; also called Vip3Ag4 protoxin; unprocessed Vip3Ag4; source: E. coli BL21(DE3), pET28b, purified (Protino Ni-TED column, Sephacryl S-300 size exclusion); not shown: His tag, N-terminal, kept

What was measured:
[1] = target: trypsin-treated Vip3Ag4 (complex of the ~65 kDa and ~21 kDa products of proteolysis) (Bacillus thuringiensis) (UniProt I6LPV9); assay: SEC; SEC of trypsin-treated recombinant Vip3Ag4 compared with unprocessed material; fractions of the major peak analysed by SDS PAGE
[2] = target: the molecule itself; assay: SEC-MALS; Superdex 200 10/300 Increase, 100 uL at 1.0 mg/mL, 20 mM TrisHCl, 300 mM NaCl, pH 8.0, 0.7 mL/min
[3] = target: the molecule itself; assay: SEC; Hi-Prep 16/60 Sephacryl S-300, 20 mM TrisHCl pH 8.0, 300 mM NaCl, 0.5 mL/min, calibrated with gel filtration standards; initial Vip3Ag4 preparation after nickel affinity

Molecule | stoichiometry N [1] | stoichiometry N [2] | stoichiometry N [3]
trypsin-treated Vip3Ag4 (complex of the ~65 kDa and ~21 kDa products of proteolysis) (from UniProt I6LPV9 1-182; I6LPV9 199-787) | 4 |  | 
B1 |  | 4 | ~4
